Results: doi:10.1101/2022.05.04.490663 (bioRxiv, 2022)

T1: Spt6 (239-1451), untagged (S. cerevisiae, UniProt P23615 239-1451)
T1 sequence (looked up): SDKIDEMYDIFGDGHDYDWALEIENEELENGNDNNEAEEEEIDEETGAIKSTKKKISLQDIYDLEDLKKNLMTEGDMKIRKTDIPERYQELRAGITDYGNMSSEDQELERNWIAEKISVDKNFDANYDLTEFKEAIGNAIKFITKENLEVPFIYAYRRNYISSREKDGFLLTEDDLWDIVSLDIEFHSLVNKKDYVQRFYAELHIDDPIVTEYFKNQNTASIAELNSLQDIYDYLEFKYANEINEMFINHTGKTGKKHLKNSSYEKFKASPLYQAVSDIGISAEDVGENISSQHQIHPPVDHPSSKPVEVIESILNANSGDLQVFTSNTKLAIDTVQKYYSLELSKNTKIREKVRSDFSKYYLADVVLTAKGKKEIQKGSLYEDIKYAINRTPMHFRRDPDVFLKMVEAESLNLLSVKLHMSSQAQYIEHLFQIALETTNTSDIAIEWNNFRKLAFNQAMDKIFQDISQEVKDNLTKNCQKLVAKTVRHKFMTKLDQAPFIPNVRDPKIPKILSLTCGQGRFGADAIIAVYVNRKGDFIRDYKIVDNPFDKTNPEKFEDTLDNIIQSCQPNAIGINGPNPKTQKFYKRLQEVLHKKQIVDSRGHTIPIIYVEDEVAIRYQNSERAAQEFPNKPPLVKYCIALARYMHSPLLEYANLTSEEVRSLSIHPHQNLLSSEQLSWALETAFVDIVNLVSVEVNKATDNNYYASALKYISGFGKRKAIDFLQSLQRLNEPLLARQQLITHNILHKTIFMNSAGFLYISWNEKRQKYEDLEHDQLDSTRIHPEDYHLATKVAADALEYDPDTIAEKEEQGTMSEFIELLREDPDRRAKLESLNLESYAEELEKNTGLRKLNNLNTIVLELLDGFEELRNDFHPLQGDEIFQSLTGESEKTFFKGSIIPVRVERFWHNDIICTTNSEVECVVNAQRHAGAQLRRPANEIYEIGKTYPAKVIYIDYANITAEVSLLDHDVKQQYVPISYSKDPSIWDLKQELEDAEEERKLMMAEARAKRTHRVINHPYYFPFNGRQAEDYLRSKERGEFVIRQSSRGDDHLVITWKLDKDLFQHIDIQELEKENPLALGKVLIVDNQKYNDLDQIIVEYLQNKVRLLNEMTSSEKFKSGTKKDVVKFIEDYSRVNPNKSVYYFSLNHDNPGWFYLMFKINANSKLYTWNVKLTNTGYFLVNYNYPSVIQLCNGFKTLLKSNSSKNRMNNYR

T2: 10xHis-mRuby2-Spt6 (239-1451) (S. cerevisiae, UniProt P23615 239-1451)
T2 sequence (looked up): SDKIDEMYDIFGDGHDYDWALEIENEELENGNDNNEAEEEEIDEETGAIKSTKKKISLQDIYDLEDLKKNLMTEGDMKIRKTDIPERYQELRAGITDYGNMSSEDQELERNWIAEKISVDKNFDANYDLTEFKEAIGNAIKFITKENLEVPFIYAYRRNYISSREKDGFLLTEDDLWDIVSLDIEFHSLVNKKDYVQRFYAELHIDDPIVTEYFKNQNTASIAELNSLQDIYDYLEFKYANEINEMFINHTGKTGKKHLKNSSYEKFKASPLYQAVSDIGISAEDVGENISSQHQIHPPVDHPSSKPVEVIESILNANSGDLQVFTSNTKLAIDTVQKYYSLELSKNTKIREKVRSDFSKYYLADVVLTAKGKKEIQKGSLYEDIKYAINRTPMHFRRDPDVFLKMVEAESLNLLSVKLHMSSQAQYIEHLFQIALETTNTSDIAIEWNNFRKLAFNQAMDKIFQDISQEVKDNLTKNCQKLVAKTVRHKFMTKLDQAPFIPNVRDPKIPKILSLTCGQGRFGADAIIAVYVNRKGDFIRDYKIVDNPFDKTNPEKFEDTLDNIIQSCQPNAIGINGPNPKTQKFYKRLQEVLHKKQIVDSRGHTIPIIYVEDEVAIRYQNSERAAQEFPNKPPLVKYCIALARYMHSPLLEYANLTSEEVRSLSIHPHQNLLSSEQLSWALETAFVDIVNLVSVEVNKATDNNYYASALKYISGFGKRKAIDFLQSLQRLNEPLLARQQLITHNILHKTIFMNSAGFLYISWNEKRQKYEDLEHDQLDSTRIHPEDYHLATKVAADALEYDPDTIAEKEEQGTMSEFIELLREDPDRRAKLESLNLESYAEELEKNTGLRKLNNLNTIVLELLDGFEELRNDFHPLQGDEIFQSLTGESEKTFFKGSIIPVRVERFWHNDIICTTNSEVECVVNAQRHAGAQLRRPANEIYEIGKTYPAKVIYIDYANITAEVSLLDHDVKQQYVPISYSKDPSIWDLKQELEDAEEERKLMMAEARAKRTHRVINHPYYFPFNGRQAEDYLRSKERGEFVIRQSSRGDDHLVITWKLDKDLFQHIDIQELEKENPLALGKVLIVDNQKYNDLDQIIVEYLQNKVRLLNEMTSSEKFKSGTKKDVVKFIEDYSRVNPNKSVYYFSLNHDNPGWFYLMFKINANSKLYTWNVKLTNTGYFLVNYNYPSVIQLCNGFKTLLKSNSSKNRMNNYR


Experiments:
[1] = target: T1, Spt6 (239-1451), untagged; test: fluorescence polarisation
[2] = target: T2, 10xHis-mRuby2-Spt6 (239-1451); test: native gel or EMSA

Kd [1] [nM] | Kd [2] [nM] | binding result [2] | Binder
770 | ~320 | – | 10xHis-mClover-Cdc73 (full-length Cdc73) (natural protein, S. cerevisiae, UniProt Q06697 1-393, looked up) MANSLDRLREHLKNGDKLVLKNNEGQSTDDITKATMVETLSSDGSTQDSFPLNEETEIEIDGSLVQLRIIVHCWMNKDSSAADYLADCQNKQLTNVSFLQRTDLINWLSGNTESSQYLKAPGQKGETSDKVDIENKTLAGELSTVKSTTSASLENDSEVSDPVVVETMKHERILVDHNSALRGAKPINFGYLIKDAELKLVQSIKGSLRGSKLPPGHKGAHGRISKTNGSSGGPRKDPIILIPSAASSILTVANIKQFLLESKYVNPRNLPSVPNGLVNIEKNFERISRPIRFIIVDNTRMFTKPEYWDRVVAIFTTGHTWQFNNYQWNSPQELFQRCKGYYFHFAGDSVPQHVQQWNVEKVELDKNKRFKDVEVVRYFWHSLEKELISRGYR
– | – | binds | 10xHis-mClover-Cdc73 with the W321A substitution (natural protein, S. cerevisiae, UniProt Q06697 1-393, looked up) MANSLDRLREHLKNGDKLVLKNNEGQSTDDITKATMVETLSSDGSTQDSFPLNEETEIEIDGSLVQLRIIVHCWMNKDSSAADYLADCQNKQLTNVSFLQRTDLINWLSGNTESSQYLKAPGQKGETSDKVDIENKTLAGELSTVKSTTSASLENDSEVSDPVVVETMKHERILVDHNSALRGAKPINFGYLIKDAELKLVQSIKGSLRGSKLPPGHKGAHGRISKTNGSSGGPRKDPIILIPSAASSILTVANIKQFLLESKYVNPRNLPSVPNGLVNIEKNFERISRPIRFIIVDNTRMFTKPEYWDRVVAIFTTGHTAQFNNYQWNSPQELFQRCKGYYFHFAGDSVPQHVQQWNVEKVELDKNKRFKDVEVVRYFWHSLEKELISRGYR
